{"source": "patent US20230048633A1", "about": "(SHATTUCK LABS, published 2023)", "binders": {"B1": {"name": "recombinant 4-1BB-His protein (receptor, mouse, UniProt P20334 24-187, looked up)", "chain": "VQNSCDNCQPGTFCRKYNPVCKSCPPSTFSSIGGQPNCNICRVCAGYFRFKKFCSSTHNAECECIEGFHCLGPQCTRCEKDCRPGQELTKQGCKTCSLGTFNDQNGTGVCRPWTNCSLDGRSVLKTGTTEKDVVCGPPVVSFSPSTTISVTPEGGPGGHSLQVL", "notes": "also called m4-1BB-His; CD137; not shown: His tag"}}, "key": {"[1]": {"target": "T1, anti-human IgG antibody", "T1 construct": "also called anti-human Fc antibody", "test": "ELISA: plate coated with Anti-Human IgG (H+L) Jax# 109-005-088, titrated protein captured, detected with HRP Goat anti-human FCgamma Jax# 109-035-008", "description": "To understand whether the human Fc linkers from the native chimeric proteins can be accessed by anti-human antibodies, ELISA-based assays were performed. For these assays, an anti-human IgG antibody was coated on plates and increasing amounts of the hCD86-Fc-NKG2A, hTGFBR2-Fc-NKG2A, and mCD80-Fc-NKG2a chimeric proteins, and a human IgG antibody were added to the plates for capture by the plate-bound anti-human antibody. The human IgG antibody and the hCD86-Fc-NKG2A chimeric protein were used as a positive control. The mCD80-Fc-NKG2a chimeric protein was included as a negative control as containing a non-human Fc domain. The protein bound to the anti-human IgG antibody was detected using an anti-human Fcgamma HRP."}, "[2]": {"target": "T2, m4-1BB expressed on CHO-K1 cells (CHO-K1/m4-1BB+ (C20)) (mouse, UniProt P20334 24-256)", "T2 construct": "whole, on cells; also called CHO-K1/4-1BB cells; 4-1BB expressed by the CHO-K1/4-1BB cells", "T2 sequence (looked up)": "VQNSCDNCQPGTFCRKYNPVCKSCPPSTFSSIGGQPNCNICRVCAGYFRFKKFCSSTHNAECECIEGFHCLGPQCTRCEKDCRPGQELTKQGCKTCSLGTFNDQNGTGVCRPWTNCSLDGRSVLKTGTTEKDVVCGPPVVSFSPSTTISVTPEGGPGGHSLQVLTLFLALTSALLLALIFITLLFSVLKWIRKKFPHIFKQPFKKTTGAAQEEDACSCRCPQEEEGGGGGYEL", "test": "flow cytometry on CHO-K1/m4-1BB+ (C20) cells, detected with Anti-mFc-APC (Jax 1:50)", "description": "To understand whether the 4-1BBL part of the mTGFBR2-Fc-4-1BBL chimeric protein can specifically bind cells expressing 4-1BB, cells expressing 4-1 BB were generated. Specifically, the CHO-K1 cells expressing 4-1 BB were generated using standard techniques. Clone 20, a positive clone, called CHO-K1/m4-1BB+ (C20), was used for further studies. To determine whether the mTGFBR2-Fc-4-1BBL chimeric protein can specifically bind the CHO-K1/4-1BB cells, a flow-cytometry-based assay was carried out. CHO-K1/m4-1BB+(C20) and WT CHO-K1 cells were stained with increasing concentrations of the TGFBR2-Fc-4-1BBL chimeric protein, or positive control protein comprising Fc-4-1BBL (Control-Fc-4-1BBL) and analyzed by flow cytometry. Unstained CHO-K1/m4-1BB+ (C20) and WT CHO-K1 cells or CHO-K1/m4-1BB+ (C20) and WT CHO-K1 cells stained without the TGFBR2-Fc-4-1BBL chimeric protein, or positive control protein comprising Fc-4-1BBL (Control-Fc-4-1BBL) were used as control."}, "[3]": {"target": "B1", "test": "ELISA: plate coated with 41BB-His (5ug/ml, Acro 41B-M52H7), titrated protein captured, detected with α-mFc-HRP (1:10k, Jax 115-036-003)", "description": "The TGFBR2-based chimeric proteins harbor type II transmembrane protein domains at or near the C-terminus. To understand whether the type II transmembrane protein domains from the native chimeric proteins can bind their natural ligands/receptors, ELISA-based assays were performed. TGFBR2-Fc-4-1BBL comprises 4-1BB ligand (4-1BBL or TNFSF9) as the type II membrane protein located at or near the C-terminus. 4-1BB (CD137, TNFRSF9) is the natural receptor/ligand of 4-1BBL. To understand whether the type II transmembrane protein domain part of the native TGFBR2-Fc-4-1BBL chimeric protein can bind 4-1BB, ELISA-based assays were performed. Recombinant 4-1BB-His protein was coated on plates. Increasing amounts of the TGFBR2-Fc-4-1BBL chimeric protein, or a positive control protein comprising Fc-4-1BBL (Control-Fc-4-1BBL) were added for capture by the plate-bound 4-1BB-His protein. Binding was detected using an anti mFc-HRP antibody. […] Therefore, the type II transmembrane protein domain of the TGFBR2-Fc-4-1BBL and Control-Fc-4-1BBL chimeric proteins bind to the natural ligand/receptor of the 4-1BBL."}, "[4]": {"target": "T3, recombinant mouse 4-1 BB Ligand protein (R&D Systems, Cat. No. 1246-4L) (mouse, UniProt P41274 104-309)", "T3 construct": "Bought reagent; also called commercially available recombinant mouse 4-1 BB Ligand protein", "T3 sequence (looked up)": "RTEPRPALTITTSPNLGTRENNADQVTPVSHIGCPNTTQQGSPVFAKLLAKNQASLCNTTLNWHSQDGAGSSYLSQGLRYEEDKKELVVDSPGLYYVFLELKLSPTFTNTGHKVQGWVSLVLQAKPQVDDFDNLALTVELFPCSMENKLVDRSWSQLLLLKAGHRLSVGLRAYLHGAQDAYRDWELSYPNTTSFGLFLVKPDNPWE", "test": "Octet (4-1BB Arc Octet): 41BB His (5ug/ml, Acro 41B-M52H7) on the tip, All Molecules at 30ug/ml; rm41BBL R&D 1246-4L", "description": "To study the binding kinetics of type II transmembrane protein domain and TGFBR2 parts of the illustrative TGFBR2-based chimeric proteins, binding assays were performed using the Octet system (ForteBio). Binding of the TGFBR2-Fc-4-1BBL chimeric protein to recombinant 4-1BB was analyzed. Briefly, recombinant 4-1BB-His protein was immobilized and detected using the mTGFBR2-Fc-4-1BBL chimeric protein, a positive control protein comprising Fc-4-1BBL (Control-Fc-4-1BBL) or commercially available recombinant mouse 4-1 BB Ligand protein (R&D Systems, Cat. No. 1246-4L). The binding response of the mTGFBR2-Fc-4-1BBL chimeric protein to 4-1BB-His protein was measured and plotted in real time on a sensorgram trace."}}, "data": [{"binder": "hTGFBR2-Fc-NKG2A chimeric protein (Fc fusion, also called human TGFBR2-Fc-NKG2A) not shown", "values": [{"measurement": "EC50 (read off the curve)", "setting": "[1]", "result": "~10", "unit": "µg/mL"}]}, {"binder": "mTGFBR2-Fc-4-1BBL chimeric protein (Fc fusion, mouse, UniProt Q62312 24-166, looked up, extracellular domain;domain: hinge-CH2-CH3 Fc domain; also called murine TGFBR2-Fc-4-1BBL; TGFBR2-Fc-CD137L) IPPHVPKSVNSDVMASDNGGAVKLPQLCKFCDVRLSTCDNQKSCMSNCSITAICEKPHEVCVAVWRKNDKNITLETVCHDPKLTYHGFTLEDAASPKCVMKEKKRAGETFFMCACNMEECNDYIIFSEEYTTSSPDLLLVIIQVPRDCGCKPCICTVPEVSSVFIFPPKPKDVLTITLTPKVTCVVVDISKDDPEVQFSWFVDDVEVHTAQTQPREEQFNSTFRSVSELPIMHQDWLNGKEFKCRVNSAAFPAPIEKTISKTKGRPKAPQVYTIPPPKEQMAKDKVSLTCMITDFFPEDITVEWQWNGQPAENYKNTQPIMNTNGSYFVYSKLNVQKSNWEAGNTFTCSVLHEGLHNHHTEKSLSHSPGKRTEPRPALTITTSPNLGTRENNADQVTPVSHIGCPNTTQQGSPVFAKLLAKNQASLCNTTLNWHSQDGAGSSYLSQGLRYEEDKKELVVDSPGLYYVFLELKLSPTFTNTGHKVQGWVSLVLQAKPQVDDFDNLALTVELFPCSMENKLVDRSWSQLLLLKAGHRLSVGLRAYLHGAQDAYRDWELSYPNTTSFGLFLVKPDNPWE", "values": [{"measurement": "EC50 (read off the curve)", "setting": "[2]", "result": "~0.08", "unit": "µg/mL"}, {"measurement": "EC50 (read off the curve)", "setting": "[3]", "result": "~0.07", "unit": "µg/mL"}]}, {"binder": "B1", "values": [{"measurement": "binding result", "setting": "[4]", "result": "binds"}]}]}
